Source: US20240132578A1

Assays:
Test in all cases: cell-based or functional assay
[1] = target: HIV-1 Env of isolate CAAN.A2 (Acute), clade B (HIV-1)
[2] = target: HIV-1 Env of pseudovirus MGRM-F1-016 (clade F) (HIV-1)
[3] = target: HIV-1 Env of isolate 92UG005 (clade D pseudovirus) (HIV-1)
[4] = target: HIV-1 Env of isolate QH0692.42 (Acute), clade B (HIV-1)
[5] = target: HIV-1 MGRM-AE-003 Env (pseudovirus) (HIV-1)
[6] = target: HIV-1 CMU02 Env (pseudovirus) (HIV-1)
[7] = target: HIV-1 APV-17 envelope (Env) on pseudovirus (HIV-1)
[8] = target: HIV-1 Env of isolate MGRM-Chronic-B-003, clade B (HIV-1)
[9] = target: HIV-1 NL43 envelope (Env) on pseudovirus (HIV-1)
[10] = target: HIV-1 MGRM-AG-011 Env (pseudovirus) (HIV-1)
[11] = target: HIV-1 Env of pseudovirus MGRM-F1-023 (clade F) (HIV-1)
[12] = target: HIV-1 Env of isolate MGRM-D-018 (clade D pseudovirus) (HIV-1)
[13] = target: HIV-1 Env of pseudovirus MGRM-G-015 (HIV-1)
[14] = target: HIV-1 Env of isolate MG RM-A-009 (pseudovirus) (HIV-1)
[15] = target: HIV-1 Env of isolate MG RM-A-011 (pseudovirus) (HIV-1)
[16] = target: HIV-1 Env of isolate 92UG005 (HIV-1)
[17] = target: HIV-1 Env of isolate MGRM-D-005 (HIV-1)
[18] = target: HIV-1 Env of pseudovirus isolate MGRM-Chronic-B-008 (clade B) (HIV-1)
[19] = target: HIV-1 Env of isolate MGRM-C-020 (subtype C), on pseudovirus (HIV-1)
[20] = target: HIV-1 Env of isolate MGRM-C-026 (subtype C), on pseudovirus (HIV-1)
[21] = target: HIV-1 Env of isolate MGRM-C-019 (subtype C), on pseudovirus (HIV-1)
[22] = target: HIV-1 Env of isolate MGRM-D-019 (pseudovirus) (HIV-1)
[23] = target: HIV-1 JR-CSF Env T303A (HIV-1 (isolate JR-CSF, clade B)) (UniProt P20871)
[24] = target: HIV-1 Env of pseudovirus isolate MGRM-C-026 (clade C) (HIV-1)
[25] = target: HIV-1 JR-CSF Env F468A (HIV-1 (isolate JR-CSF)) (UniProt P20871)
[26] = target: HIV-1 Env of isolate MGRM-AG-012 (subtype AG) (HIV-1)
[27] = target: HIV-1 JR-CSF Env I423A (I4234 in the source) (HIV-1 (isolate JR-CSF)) (UniProt P20871)
[28] = target: HIV-1 Env of isolate MGRM-AG-002 (subtype AG) (HIV-1)
[29] = target: HIV-1 Env of isolate MGRM-F1-013 (HIV-1)
[30] = target: HIV-1 Env of isolate MGRM-AG-013 (subtype AG) (HIV-1)
[31] = target: HIV-1 Env of isolate 94KE105 (subtype AC) (HIV-1)
[32] = target: HIV-1 Env of isolate MGRM-Chronic-B-004 (HIV-1)
[33] = target: HIV-1 Env of isolate MGRM-D-022 (pseudovirus) (HIV-1)
[34] = target: HIV-1 envelope glycoprotein (Env) of isolate APV_6, on pseudovirus (HIV-1)
[35] = target: HIV-1 Env of isolate MGRM-AG-001 (pseudovirus) (HIV-1)
[36] = target: HIV-1 94UG103 Env (HIV-1)
[37] = target: HIV-1 envelope glycoprotein (Env) of isolate MGRM-Chronic-B-008, on pseudovirus (HIV-1)
[38] = target: HIV-1 93IN905 Env (HIV-1)
[39] = target: HIV-1 envelope glycoprotein (Env) of isolate MG RM-A-007, subtype A (HIV-1)
[40] = target: HIV-1 envelope glycoprotein (Env) of isolate MG RM-A-010, subtype A (HIV-1)
[41] = target: HIV-1 Env of isolate MGRM-F1-013 (pseudovirus) (HIV-1)
[42] = target: HIV-1 MGRM-A-010 Env (HIV-1)
[43] = target: HIV-1 envelope glycoprotein (Env) of isolate MG RM-A-011, subtype A (HIV-1)

Sequence of 4995_P16 (PGT-145) (antibody) (VH): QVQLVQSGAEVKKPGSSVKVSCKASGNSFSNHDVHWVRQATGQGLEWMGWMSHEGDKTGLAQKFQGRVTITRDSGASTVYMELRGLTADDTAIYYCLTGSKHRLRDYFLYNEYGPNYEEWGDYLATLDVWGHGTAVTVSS
Sequence of 4995_P16 (PGT-145) (antibody) (VL): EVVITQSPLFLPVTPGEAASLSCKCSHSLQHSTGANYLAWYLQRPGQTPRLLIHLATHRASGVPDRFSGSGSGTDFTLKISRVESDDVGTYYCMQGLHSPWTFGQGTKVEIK
Sequence of 4995_E20 (PGT-142) (antibody) (VH): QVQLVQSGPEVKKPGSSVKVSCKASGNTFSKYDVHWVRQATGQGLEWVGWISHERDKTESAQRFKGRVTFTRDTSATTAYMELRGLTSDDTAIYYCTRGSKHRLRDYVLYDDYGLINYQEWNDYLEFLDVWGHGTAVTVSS
Sequence of 4995_E20 (PGT-142) (antibody) (VL): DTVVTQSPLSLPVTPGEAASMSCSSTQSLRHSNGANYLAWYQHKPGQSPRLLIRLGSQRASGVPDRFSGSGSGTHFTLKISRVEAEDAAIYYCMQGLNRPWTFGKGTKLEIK

## 2F5 (antibody)
[1]
  IC50 (µg/ml), pseudovirus neutralization: 23.1 µg/mL
[2]
  IC50: 21.5 mg/L
[3]
  IC50, pseudovirus neutralization: 8.61 mg/L
[4]
  IC50 (µg/ml), pseudovirus neutralization: 5.42 µg/mL
[5]
  IC50 (µg/ml), pseudovirus neutralization: 0.24 µg/mL
[6]
  IC50 (µg/ml), pseudovirus neutralization: 0.6 µg/mL
[7]
  neutralization IC50: 2 mg/L
[8]
  IC50 (µg/ml), pseudovirus neutralization: 1 µg/mL
[9]
  neutralization IC50: 2.41 mg/L
[10]
  IC50 (µg/ml), pseudovirus neutralization: > 50 µg/mL
[11]
  IC50: 1.78 mg/L
[12]
  IC50, pseudovirus neutralization: 4.05 mg/L
[13]
  IC50 (µg/ml), pseudovirus neutralization: 0.43 µg/mL

## 2G12 (antibody)
[1]
  IC50 (µg/ml), pseudovirus neutralization: > 50 µg/mL
[2]
  IC50: > 50 mg/L
[3]
  IC50, pseudovirus neutralization: > 50 mg/L
[4]
  IC50 (µg/ml), pseudovirus neutralization: 4.39 µg/mL
[5]
  IC50 (µg/ml), pseudovirus neutralization: > 50 µg/mL
[6]
  IC50 (µg/ml), pseudovirus neutralization: > 50 µg/mL
[7]
  neutralization IC50: > 50 mg/L
[8]
  IC50 (µg/ml), pseudovirus neutralization: 0.06 µg/mL
[9]
  neutralization IC50: 0.75 mg/L
[10]
  IC50 (µg/ml), pseudovirus neutralization: > 50 µg/mL
[11]
  IC50: 9.23 mg/L
[12]
  IC50, pseudovirus neutralization: 0.12 mg/L
[13]
  IC50 (µg/ml), pseudovirus neutralization: > 50 µg/mL

## 4995_E20 (PGT-142) (antibody)
[14]
  IC50 (µg/mL), single-round pseudovirus neutralization: 0.058 µg/mL
[15]
  IC50 (µg/mL), single-round pseudovirus neutralization: > 50 µg/mL
[16]
  IC50 (µg/mL), pseudovirus neutralization: > 50 µg/mL
[17]
  IC50 (µg/mL), pseudovirus neutralization: 1.15 µg/mL
[18]
  IC50, pseudovirus neutralization: > 50 mg/L
[19]
  IC50, single-round pseudovirus neutralization: 0.446 mg/L
[20]
  IC50, single-round pseudovirus neutralization: > 50 mg/L
[21]
  IC50, single-round pseudovirus neutralization: 0.003 mg/L

## 4995_P16 (PGT-145) (antibody)
[14]
  IC50 (µg/mL), single-round pseudovirus neutralization: 0.235 µg/mL
[15]
  IC50 (µg/mL), single-round pseudovirus neutralization: 0.484 µg/mL
[16]
  IC50 (µg/mL), pseudovirus neutralization: > 50 µg/mL
[17]
  IC50 (µg/mL), pseudovirus neutralization: 10.4 µg/mL
[18]
  IC50, pseudovirus neutralization: 1.9 mg/L
[19]
  IC50, single-round pseudovirus neutralization: 0.712 mg/L
[20]
  IC50, single-round pseudovirus neutralization: > 50 mg/L
[21]
  IC50, single-round pseudovirus neutralization: 0.005 mg/L

## 5114_A19 (PGT-128) (antibody)
[22]
  IC50 (µg/mL), pseudovirus neutralization: > 50 µg/mL
[23]
  Fold IC50 increase relative to wild-type: > 500 fold
[24]
  IC50, pseudovirus neutralization: 0.007 mg/L
[25]
  Fold IC50 increase relative to wild-type (pseudovirus neutralization): 0.5 fold
[26]
  IC50, pseudovirus neutralization: > 50 mg/L
[27]
  Fold IC50 increase relative to wild-type (pseudovirus neutralization): 2.6 fold
[28]
  IC50, pseudovirus neutralization: 4.99 mg/L
[29]
  IC50 (µg/mL), pseudovirus neutralization: 12.7 µg/mL
[30]
  IC50, pseudovirus neutralization: 0.004 mg/L
[31]
  IC50, pseudovirus neutralization: 0.007 mg/L
[32]
  IC50 (µg/mL), pseudovirus neutralization: 0.009 µg/mL
[33]
  IC50 (µg/mL), pseudovirus neutralization: > 50 µg/mL

## 5123_A06 (PGT-125) (antibody)
[34]
  IC50, pseudovirus neutralization: 0.021 mg/L
[35]
  IC50 (µg/mL), pseudovirus neutralization: > 50 µg/mL
[36]
  IC50, pseudovirus neutralization: 0.0124 mg/L
[23]
  Fold IC50 increase relative to wild-type: > 250 fold
[37]
  IC50, pseudovirus neutralization: > 50 mg/L
[25]
  Fold IC50 increase relative to wild-type (pseudovirus neutralization): 1 fold
[38]
  IC50, pseudovirus neutralization: 0.0137 mg/L
[39]
  IC50, pseudovirus neutralization: > 50 mg/L
[6]
  Neutralization by PGT-125, IC50: > 10 mg/L
  Neutralization by PGT-125, IC80: > 10 mg/L
  Neutralization by PGT-125, IC90: > 10 mg/L
  Neutralization by PGT-125, IC95: > 10 mg/L
[27]
  Fold IC50 increase relative to wild-type (pseudovirus neutralization): 5 fold
[40]
  IC50, pseudovirus neutralization: 0.004 mg/L
[41]
  IC50 (µg/mL), pseudovirus neutralization: > 50 µg/mL
[42]
  IC50, pseudovirus neutralization: 0.0025 mg/L
[43]
  IC50, pseudovirus neutralization: > 50 mg/L

## 5136_H01 (PGT-131) (antibody)
[22]
  IC50 (µg/mL), pseudovirus neutralization: > 50 µg/mL
[23]
  Fold IC50 increase relative to wild-type: > 170 fold
[24]
  IC50, pseudovirus neutralization: 1.67 mg/L
[25]
  Fold IC50 increase relative to wild-type (pseudovirus neutralization): 1.6 fold
[26]
  IC50, pseudovirus neutralization: > 50 mg/L
[27]
  Fold IC50 increase relative to wild-type (pseudovirus neutralization): > 80 fold
[28]
  IC50, pseudovirus neutralization: > 50 mg/L
[29]
  IC50 (µg/mL), pseudovirus neutralization: > 50 µg/mL
[30]
  IC50, pseudovirus neutralization: 0.03 mg/L
[31]
  IC50, pseudovirus neutralization: 0.013 mg/L
[32]
  IC50 (µg/mL), pseudovirus neutralization: 0.04 µg/mL
[33]
  IC50 (µg/mL), pseudovirus neutralization: > 50 µg/mL

## 5141_B17 (PGT-126) (antibody)
[34]
  IC50, pseudovirus neutralization: 0.007 mg/L
[35]
  IC50 (µg/mL), pseudovirus neutralization: > 50 µg/mL
[36]
  IC50, pseudovirus neutralization: 0.0091 mg/L
[23]
  Fold IC50 increase relative to wild-type: > 250 fold
[37]
  IC50, pseudovirus neutralization: 5.89 mg/L
[25]
  Fold IC50 increase relative to wild-type (pseudovirus neutralization): 0.7 fold
[38]
  IC50, pseudovirus neutralization: 0.0194 mg/L
[39]
  IC50, pseudovirus neutralization: > 50 mg/L
[27]
  Fold IC50 increase relative to wild-type (pseudovirus neutralization): 1.1 fold
[40]
  IC50, pseudovirus neutralization: 0.002 mg/L
[41]
  IC50 (µg/mL), pseudovirus neutralization: > 50 µg/mL
[42]
  IC50, pseudovirus neutralization: 0.0033 mg/L
[43]
  IC50, pseudovirus neutralization: > 50 mg/L
